B1: ScACS-8: Schizochytrium acyl-CoA synthetase, SEQ ID NO:96/97 (protein, listed as Schizochytrium sp.)
chain: MDAEKVIKAGAAAGAAYLGWKYLDEKHGISHDLELARRLLKLKKEINERNTKRVFNVTNMWYEAYAKNPKKPALLYLDEVVTYQDMEDRSNQVANWLLSKGLKRGDTVALLMENRPEFVISWLGMTKIGVKVALINTSIKQKPLLHCLKISGCKIVLFGSELAEPILDIKDELADLGIELAAEGAREASPDWIEVVNPEIEASPKTATSPKLREGIGMQDVFGFIYTSGTTGLPKAAVILHQKMFSFGALMTNAFQCTQDDIVYTCLPLFHSAGGGLGIGIMLYTGATVVIKRKFSVTDFWSDCVKYKCTVVQYIGELCRYLVMAESRPEETQHKVRLAIGNGLRPEIWAEFQERFQIPQIGEFYGATEGNGALVQHCTKPEDRGAVGRMGSLLMRVTGVKFARFDVLEEAPVRGADGFCIECDVDEPGELLFPIRDNDPSSAFAGYNDPKATAKKIITDAFTKGDKYFRTGDLLSRDARGRIYFRDRIGDTFRCKGENVSTSEVAEVLSTYPGIEELNIYGVQIPNNEDGRFPCAALTPKDSDLSNVDLKGFYEHAKKNLPSYSIPMFIRVQPVMPVTATMKHQKVQLRKEGMDIHVIKDPMYWLHDVKKEYDPLTEEDYARIIGQRARL
B2: DAGAT: Schizochytrium diacylglycerol acyltransferase, SEQ ID NO:100/101; gene knocked out in strain B73-8 (protein, listed as Schizochytrium sp.)
chain: MERPQAQASPARSEARRRRGDRSKGFADEDGETSVNTPNGMQTPYSTSMGSVSSYSSSGDYAMSEAEGSEVDPADDRMGDSIGSKPSSSSVTGRRRLTQEERDYFLRLEKEWREEDAWADQPGSWYSMLAWMPVLIGLRVFNVLLSIAFWPVSFVARVFFGKKIHTVSFWDVPLSRRKQTAVVLLFVMLLPMVVVVYSWTLVLLLFPLTTFPTLCYMVWIIYVDKSPETGSRRPFLRYWKMWRHFANYFPLRLIRTTPLDSRRKYVFCYHPHGIISLGAFGNFATDSTGFSRKFPGIDLRVLTLALNFYCPLLREFLLYLGLCSAAKKSCNQILQRGPGSAIMLVVGGAAESLDSQPGTYRLTLGRKGFVRVALDNGADLVPVLAFGENDVFDTVYLPPNSWARNVQEFVRKKLGFATPIFSGRGIFQYNMGLMPHRRPIIVVVGKPIKMPKIPDELKGRALSTTAEGVALVDKYHEKYVKALRELWNLYKERWAVHRQGSLLIQK
B3: ScACS-5: Schizochytrium acyl-CoA synthetase, SEQ ID NO:90/91 (protein, listed as Schizochytrium sp.)
chain: MLEMREEVVKHEGEAAHFKGVKMKVFPNGFQTMVDIFKVPFEKQVMKNDLLVDETGRMTFQEVFDTAAALGDALVNEYGVEKGDRVVALSKNRNEYIVTMIAATSVGAIFAPLNSYWKTEQLSYGLDDSGAKVVVCDADRYVQLEPLLDGRASALERVLLLRGPGTEKFRPNAKTTAFDEVISKHAGARMPPFPCQKDDPAMIMYTSGTTGNPKGVVLTHRSIGEAMTGAVAAMTYEKTLAATRAGETLPEPEDPSLSAFLLAVPLFHVTGHHCVGLLSIISCRKIVLMSKWDPKLALELIESERITNFTGVPTMALDLMTHPDFKKRDTSTLKSLGGGGAAPPSTMVNDIDKNFKQASPLQAWGMTETNGIATLTEGDMYRRKPESCGKAIPNVEIAIWNARDEPVPAGAEGELVIRGSTCLKEYWNKPEATAKSITAEGWFRTGDIGVIDEEGFLQLKGRSKEIIIRGGENISCVVVENAVYNHDDINEVAAIPVPHPTLGEEVGIAVFSQSGARPSLQSIRDVCGNLARYEMPTHIYYWPEQLPRGDTGKIHKRTILADIKAGKVKDEAVPASKL
B4: ScACS-3: Schizochytrium acyl-CoA synthetase, SEQ ID NO:86/87 (protein, listed as Schizochytrium sp.)
chain: MGCSGSKPAAPGEVPAVQGYEVTEEVAPGPYDPEKGPYYVSNKAERREIIFAAKGVASEATTPAMTLSKMFRKAAEASKDEVALAVEWPVPEIGADGKIPDSLPLDKWRTWTFGQYYADSHAMARAIVALGAERFDGVTIFGFNSPFWLMAQMAATLSTTLPAGIYPTDTAEQVRYKLRYTDTAVAFCGVEKEFTMLRAAVEDAPDLKAIVCWAHLPMVKTITREDGSKVKVMSWQEALALGEITPPAEVDARIEAQNPGDCAELVFTSGTTGLPKAVMLSHDNLCFAITSIVSTLEDFGRSGPESHLSYLPLSHIAGQEMDVLLPLVVTAFRESHHAVYFVRPYDLKTGTLIDRVKTVQPTAFLGVPRVYEKIMAKMRAKGASVKGLKKKIVQYSKKKGLEYQRNLEVGGSGGKPSNYGFAEKKVLSKVKEALGFTRLKFAISGAAPMSREVQEYFAGIGIAILDVYGASESTGGVTGNSIKAHQFGTVGHTLPGMDVRVFQKAEGGDSSAETGLGELREPARAKDIFHPSEEEQGEVCFRGRSVMLGYMANPKLGEEHVAEVERKNASAIDRHGWYHSGDKGACSKKNMFVITGRYKEIIIGAGGENIAPLPMEDAVKSLAPGVANAIMIGDKRKFNIMLITLRAEGATGEFPGSDNLDPDVRSIGSDSTRTIQKAMADSKWIEHVRDAISKTNANGDACQSNAWKIGRFTILPYDISIVGGELTPTLKLKRNFVDEKYKAVIDHVYAHEGDSKDLTYVPCPIDRVPRKISGDESAAGAASPEANVAEPVTAESGSPSEVTTEAKPANETDDAESKDAAAPLAAKVDTTVPDVAQPQAAS

What was measured:
acyl-CoA synthetases = test: In vitro activity assay of Schizochytrium FAS-KO cell free homogenate with Triacsin C (HIP extraction, normal phase TLC, phosphorimage); assay type: biochemical; details: FAS-KO sample; Triacsin C 0, 25, 100 or 200 uM for 10 minutes, then ATP and Mg+2, additional 20 minutes; effect at higher concentrations
Protocol: An example of a protocol for in vitro activity assays of both FAS and PUFA synthase activities is as follows. In a final volume of 100 uL, mix the enzyme preparation and Buffer A (volume of these 2 components=90 uL) plus the following components added as a cocktail (in 10 uL) to yield the final concentrations indicated in parenthesis: malonyl-CoA (50 uM—a mixture of cold and malonyl-2-^14C-CoA such that the final concentration of radiolabel is 0.65 μCi/mL), NADH (1 mM), NADPH (1 mM) and acetyl-CoA (10 uM). These components and additional components can be adjusted depending on the requirements of the particular experiments. The assay reactions are carried out in glass tubes in a room temperature (˜21° C.) water bath. The time of incubation is dependant on the experimental requirements. The reactions are stopped by one of two methods depending on the work-up protocol. For conversion of fatty acids to fatty acid methyl-esters (FAMEs) using an acidic method, the reaction is stopped by adding the FAME reagent (see below). For extraction of lipids without derivatization, the reaction is stopped by addition of 125 uL of isopropanol:acetic acid (4:1 v/v) (see below). […]

yeast = test: FAME analysis of yeast expressing Schizochytrium PUFA synthase and Het I with co-expressed acyl-CoA synthetase; assay type: cell-based, Saccharomyces cerevisiae; details: data not shown
Description: More specifically, the yeast expression system described in the Examples above was modified to accommodate introduction of the fifth ACoAS gene (i.e., the yeast also contained OrfsA, B and C of the Schizochytrium PUFA synthase system and a PPTase (Het I from Nostoc)) using 4 vectors. Yeast expression vectors in which two genes can be cloned (the pESC vectors) were obtained from Stratagene. These vectors are similar to and compatible with the pYES vectors described above. […] This provides confirmation that the accumulation of the products of the PUFA synthase in heterologous host can be increased by co-expression of enzymes that may be more efficient at utilization of those products.
In subsequent experiments, ScACS-3, ScACS-5, ScACS-6 and ScACS-8 were also tested in yeast that contained the genes encoding the Schizochytrium PUFA synthase system (e.g., sOrfA, sOrfB and nOrfC, and HetI), using similar methods as described above.

Schizochytrium = test: DAGAT gene knock out in Schizochytrium strain B73-8, lipid profile; assay type: cell-based; details: inactivation of the DAGAT gene in Schizochytrium B73-8
Description: Using the knock out technology described above in Example 1 for FAS in Schizochytrium, the inventors similarly knocked out the DAGAT gene (comprising SEQ ID NO:100) in a Schizochytrium strain, denoted B73-8. […] Accordingly, the inventors concluded that this DAGAT is the primary enzyme responsible for TAG synthesis in Schizochytrium.

Molecule	DHA production in yeast as compared to in the absence of the added acyl-CoA synthetase gene (yeast)	further results
CCC/C=C/C/C=C/C=C/C=N/NN=O [Triacsin C]		radiolabel in the FFA band (loss after addition of ATP and Mg+2) (acyl-CoA synthetases): blocked the loss of radiolabel from the FFA band
B1	increased DHA production	
B2		reduction in TAG (Schizochytrium): ~90%; reduction in mg FAME/gm biomass (Schizochytrium): ~80%
B3	increased DHA production	
B4	increased DHA production	
